From patent US20180148492A1 (CHILDREN S HOSPITAL MEDICAL CENTER, published 2018)

T1: integrin α4 overexpressed in HEK 293T cells (UniProt P13612 34-1032, limits assumed)
T1 construct: Tested in cell lysates; also called α4 integrin; pITGA4
T1 sequence (looked up): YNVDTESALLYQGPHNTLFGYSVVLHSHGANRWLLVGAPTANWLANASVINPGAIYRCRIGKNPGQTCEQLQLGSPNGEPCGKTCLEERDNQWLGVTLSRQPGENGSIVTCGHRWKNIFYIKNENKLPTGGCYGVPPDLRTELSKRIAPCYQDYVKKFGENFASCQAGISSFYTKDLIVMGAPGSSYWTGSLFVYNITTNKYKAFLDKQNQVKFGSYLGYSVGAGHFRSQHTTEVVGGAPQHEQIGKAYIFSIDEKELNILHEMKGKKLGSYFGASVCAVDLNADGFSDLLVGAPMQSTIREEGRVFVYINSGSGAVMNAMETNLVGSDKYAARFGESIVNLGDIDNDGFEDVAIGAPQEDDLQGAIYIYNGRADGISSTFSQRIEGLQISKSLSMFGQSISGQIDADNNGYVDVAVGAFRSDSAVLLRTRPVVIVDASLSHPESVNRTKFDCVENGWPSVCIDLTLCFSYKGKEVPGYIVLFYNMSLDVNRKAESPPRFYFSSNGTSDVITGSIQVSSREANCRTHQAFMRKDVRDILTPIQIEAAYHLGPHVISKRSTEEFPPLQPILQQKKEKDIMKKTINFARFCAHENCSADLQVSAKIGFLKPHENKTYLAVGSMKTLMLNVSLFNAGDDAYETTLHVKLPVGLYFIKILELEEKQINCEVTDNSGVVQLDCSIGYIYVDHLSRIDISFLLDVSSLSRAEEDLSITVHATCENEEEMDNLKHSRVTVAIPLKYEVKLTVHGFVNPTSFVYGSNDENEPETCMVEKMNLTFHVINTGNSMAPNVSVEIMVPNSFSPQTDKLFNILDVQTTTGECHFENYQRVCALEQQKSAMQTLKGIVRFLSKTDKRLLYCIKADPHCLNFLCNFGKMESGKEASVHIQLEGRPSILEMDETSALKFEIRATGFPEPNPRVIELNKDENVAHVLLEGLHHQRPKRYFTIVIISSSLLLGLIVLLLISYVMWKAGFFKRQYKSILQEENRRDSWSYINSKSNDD


What was measured:
[1] = target: the molecule itself; assay: cell-based or functional assay
[2] = target: T1, integrin α4 overexpressed in HEK 293T …; assay: co-immunoprecipitation from HEK 293T cells overexpressing the proteins
Description: Cells (approximately 2×10⁶) were washed one time with PBS and incubated in IP buffer (50 mM Tris-HCl [pH 7.4], 150 mM NaCl, 2 mM EDTA, 1 mM dithiothreitol, 1% Nonidet P-40 [NP-40]; or 10 mM imidazole, 100 mM NaCl, 1 mM MgCl₂, 5 mM EDTA, 1% Triton X-100, pH 7.4) containing 1× cOmplete protease inhibitor cocktail (Roche) for 10 min on ice. Cells were scraped from the plate and rotated at 4° C. for 10 min. Lysates were cleared by centrifugation at 20,000×g at 4° C. for 10 min. An equal amount of protein was added to total 500 microliters of IP buffer plus protease inhibitors (Roche). Antibodies (2 micrograms α-HA (Covance), α-myc (Covance), α-p120 (BD Transduction Laboratories), α-ITGA4 (Cell Signaling Technology, Inc.), mouse IgG1 control (AbD Serotec), or normal rabbit IgG control (R & D Systems)) were added and rotated overnight at 4° C. Subsequently, 20 microliters of protein A/G agarose beads (Santa Cruz Biotechnology, Inc.) were added per sample. After 2 h of rotation (4° C.), beads were washed 5 times in IP buffer containing protease inhibitors. 2× Laemmli buffer was added to the immunoprecipitates or total cell lysates saved prior to IP (input).

binding result [2]	Binder	phosphorylation of ERK upon calcium restoration [1] [fold]
–	human CDH26 (cadherin 26) expressed on transduced cells (receptor) DSVQQETDDLTKQTKEKIYQPLRRSKRRWVITTLELEEEDPGPFPKLIGELFNNMSYNMSLMYLISGPGVDEYPEIGLFSLEDHENGRIYVHRPVDREMTPSFTVYFDVVERSTGKIVDTSLIFNIRISDVNDHAPQFPEKEFNITVQENQSAGQPIFQMLAVDLDEENTPNSQVLYFLISQTPLLKESGFRVDRLSGEIRLSGCLDYETAPQFTLLIRARDCGEPSLSSTTTVHVDVQEGNNHRPAFTQENYKVQIPEGRASQGVLRLLVQDRDSPFTSAWRAKFNILHGNEEGHFDISTDPETNEGILNVIKPLDYETRPAQSLIIVVENEERLVFCERGKLQPPRKAAASATVSVQVTDANDPPAFHPQSFIVNKEEGARPGTLLGTFNAMDPDSQIRYELVHDPANWVSVDKNSGVVITVEPIDRESPHVNNSFYVIIIHAVDDGFPPQTATGTLMLFLSDINDNVPTLRPRSRYMEVCESAVHEPLHIEAEDPDLEPFSDPFTFELDNTWGNAEDTWKLGRNWGQSVELLTLRSLPRGNYLVPLFIGDKQGLSQKQTVHVRICPCASGLTCVELADAEVGLHVGALFPVCAAFVALAVALLFLLRCYFVLEPKRHGCSVSNDEGHQTLVMYNAESKGTSAQTWSDVEGQRPALLICTAAAGPTQGVKDLEEVPPSAASQSAQARCALGSWGYGKPFEPRSVKNIHSTPAYPDATMHRQLLAPVEGRMAETLNQKLHVANVLEDDPGYLPHVYSEEGECGGAPSLSSLASLEQELQPDLLDSLGSKATPFEEIYSESGVPS	11.6
no binding	CDH1 (E-cadherin) overexpressed in HEK 293T cells (receptor, UniProt P12830 155-882, looked up, Tested in cell lysates; also called pCDH1) DWVIPPISCPENEKGPFPKNLVQIKSNKDKEGKVFYSITGQGADTPPVGVFIIERETGWLKVTEPLDRERIATYTLFSHAVSSNGNAVEDPMEILITVTDQNDNKPEFTQEVFKGSVMEGALPGTSVMEVTATDADDDVNTYNAAIAYTILSQDPELPDKNMFTINRNTGVISVVTTGLDRESFPTYTLVVQAADLQGEGLSTTATAVITVTDTNDNPPIFNPTTYKGQVPENEANVVITTLKVTDADAPNTPAWEAVYTILNDDGGQFVVTTNPVNNDGILKTAKGLDFEAKQQYILHVAVTNVVPFEVSLTTSTATVTVDVLDVNEAPIFVPPEKRVEVSEDFGVGQEITSYTAQEPDTFMEQKITYRIWRDTANWLEINPDTGAISTRAELDREDFEHVKNSTYTALIIATDNGSPVATGTGTLLLILSDVNDNAPIPEPRTIFFCERNPKPQVINIIDADLPPNTSPFTAELTHGASANWTIQYNDPTQESIILKPKMALEVGDYKINLKLMDNQNKDQVTTLEVSVCDCEGAAGVCRKAQPVEAGLQIPAILGILGGILALLILILLLLLFLRRRAVVKEPLLPPEDDTRDNVYYYDEEGGGEEDQDFDLSQLHRGLDARPEVTRNDVAPTLMSVPRYLPRPANPDEIGNFIDENLKAADTDPTAPPYDSLLVFDYEGSGSEAASLSSLNSSESDKDQDYDYLNEWGNRFKKLADMYGGGEDD	–
